Experimental findings from patent publication US20260055182A1 are described below.

The target in assay [1] is human C1q purified protein (human) (UniProt P02745). The experiment in a line: SPR (Biacore T200), C1q reversibly immobilised, antibody as analyte.
The target of the next assay is human FcyRI/CD64 (human) (UniProt P12314). Kind of assay: SPR (Biacore 8K+), receptor reversibly immobilised, antibody as analyte.
Assay [2] addresses human FcyRIIA/CD32a (H167) (human) (UniProt P12318). The description is as above.
For assay [3], the target named is human FcyRIIIA/CD16a (V176) (human) (UniProt P08637). Described as above.
The target of assay [4] is human FcRn / FCGRT&B2M (human) (UniProt P55899). Kind of assay: SPR (Biacore T200), pH 6.0, FcRn reversibly immobilised, antibody as analyte.
Sequence of human FcRn / FCGRT&B2M (human) (P55899 24-297 limits assumed, chain 1 of 2): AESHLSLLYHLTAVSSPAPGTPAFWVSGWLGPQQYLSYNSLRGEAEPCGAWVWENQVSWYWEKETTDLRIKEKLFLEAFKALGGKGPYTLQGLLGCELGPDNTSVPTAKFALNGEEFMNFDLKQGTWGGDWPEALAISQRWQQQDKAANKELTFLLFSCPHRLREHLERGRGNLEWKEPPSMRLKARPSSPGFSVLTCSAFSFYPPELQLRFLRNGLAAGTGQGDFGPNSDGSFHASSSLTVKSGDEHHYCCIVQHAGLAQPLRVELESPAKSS
Sequence of human FcRn / FCGRT&B2M (human) (P61769 21-119 limits assumed, chain 2 of 2, further chain): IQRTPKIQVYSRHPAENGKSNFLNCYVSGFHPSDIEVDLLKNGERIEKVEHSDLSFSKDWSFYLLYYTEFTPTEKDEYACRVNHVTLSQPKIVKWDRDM

Sequence of human FcyRIIIA/CD16a (V176) (human) (P08637 17-208 F176V limits assumed): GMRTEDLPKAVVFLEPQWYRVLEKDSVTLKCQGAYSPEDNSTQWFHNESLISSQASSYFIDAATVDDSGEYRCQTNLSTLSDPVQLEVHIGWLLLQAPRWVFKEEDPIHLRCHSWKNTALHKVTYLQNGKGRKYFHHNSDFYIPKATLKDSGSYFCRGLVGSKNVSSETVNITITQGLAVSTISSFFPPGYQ
Sequence of human FcyRIIA/CD32a (H167) (human) (P12318 36-218): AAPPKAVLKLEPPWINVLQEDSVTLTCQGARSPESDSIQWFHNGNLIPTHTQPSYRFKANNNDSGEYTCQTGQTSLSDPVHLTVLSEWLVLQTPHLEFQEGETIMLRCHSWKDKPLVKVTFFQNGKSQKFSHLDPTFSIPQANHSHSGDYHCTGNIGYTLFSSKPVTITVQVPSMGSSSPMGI
Sequence of human C1q purified protein (human) (P02745 23-245, chain 1 of 3): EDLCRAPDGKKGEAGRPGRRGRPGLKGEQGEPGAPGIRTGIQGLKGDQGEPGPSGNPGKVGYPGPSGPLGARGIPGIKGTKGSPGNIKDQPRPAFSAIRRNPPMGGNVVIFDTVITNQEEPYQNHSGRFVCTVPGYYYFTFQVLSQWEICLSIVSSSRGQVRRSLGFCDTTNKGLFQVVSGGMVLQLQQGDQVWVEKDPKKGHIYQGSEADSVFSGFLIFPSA
Sequence of human C1q purified protein (human) (P02746 28-253, chain 2 of 3, further chain): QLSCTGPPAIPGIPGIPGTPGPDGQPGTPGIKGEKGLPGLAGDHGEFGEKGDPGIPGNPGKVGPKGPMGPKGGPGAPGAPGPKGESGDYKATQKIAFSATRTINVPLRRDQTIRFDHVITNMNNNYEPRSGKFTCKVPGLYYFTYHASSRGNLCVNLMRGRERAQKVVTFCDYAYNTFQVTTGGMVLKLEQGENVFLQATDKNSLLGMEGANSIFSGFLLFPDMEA
Sequence of human C1q purified protein (human) (P02747 29-245, chain 3 of 3, further chain): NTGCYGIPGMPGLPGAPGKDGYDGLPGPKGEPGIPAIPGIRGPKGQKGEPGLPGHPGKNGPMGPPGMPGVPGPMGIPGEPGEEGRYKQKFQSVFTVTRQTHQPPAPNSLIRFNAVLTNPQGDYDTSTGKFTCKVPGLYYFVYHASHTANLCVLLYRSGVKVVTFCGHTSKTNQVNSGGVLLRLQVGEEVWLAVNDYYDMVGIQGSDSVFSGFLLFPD
Sequence of human FcyRI/CD64 (human) (P12314 16-288 limits assumed): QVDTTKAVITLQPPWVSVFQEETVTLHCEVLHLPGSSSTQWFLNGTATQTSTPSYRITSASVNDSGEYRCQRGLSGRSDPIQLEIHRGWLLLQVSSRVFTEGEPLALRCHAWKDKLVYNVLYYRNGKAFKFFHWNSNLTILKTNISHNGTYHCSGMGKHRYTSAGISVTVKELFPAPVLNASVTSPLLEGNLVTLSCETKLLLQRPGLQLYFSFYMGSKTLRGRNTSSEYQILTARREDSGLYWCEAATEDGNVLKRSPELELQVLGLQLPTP

As to Mabthera (Rituximab) (antibody), the Kd in assay [1] was found to be 129 nM; with human FcyRI/CD64 (human), 0.0407 nM; in assay [2], 324 nM; in assay [3] it was 57.9 nM; in assay [4] it was 384 nM.
